# Experimental data taken from PMC11695723.
# Legend:
# [1] = target: Origin Recognition Complex (ORC); assay: pre-RC assembly on DNA beads, silver-stained gel band quantification; conditions: ATP, low salt wash; read off a plot
# [2] = target: Origin Recognition Complex (ORC) (UniProt P54784); assay: pull-down; pre-RC assay as a2 but with 3 mM ATP, WT Cdc6, low salt wash
response [1],complex formation compared to WT [2],Substance
0.5,–,"MCM2-7 (wild type) mutant Mcm5:E710R; Mcm5:E717R; Mcm5:E736R [S. cerevisiae] / Origin Recognition Complex (ORC) [not stated] chain 4 E710R, chain 4 E717R, chain 4 E736R"
0.25,–,"MCM2-7 (wild type) mutant Mcm5:K757D; Mcm5:R764E; Mcm5:R772E [S. cerevisiae] / Origin Recognition Complex (ORC) [not stated] chain 4 K757D, chain 4 R764E, chain 4 R772E"
0.28,–,"MCM2-7 (wild type) mutant Mcm5:R721E; Mcm5:R735E [S. cerevisiae] / Origin Recognition Complex (ORC) [not stated] chain 4 R721E, chain 4 R735E"
–,65%,"MCM2-7-ΔC2, P29469 1-847; P24279 1-971; P30665 1-933; P29496 1-775; P53091 1-1017; P38132 1-845"
